The source of these data is patent US5837516A, “Subtilisin variants capable of cleaving substrates containing basic residues” (Genentech, Inc., priority 1995, dated 1998).

Residues, ends and D or L forms follow the SMILES beside them.

Data set [1] deals with T1, subtilisin BPN' variant N62D/G166D (mature enzyme SEQ ID NO: 72) (Bacillus amyloliquefaciens, UniProt P00782, G273D/N169D).
T1 construct: made in house; host or cells: Bacillus subtilis BG2036 (protease-deficient), secreted
T1 sequence (P00782 108-382 N169D/G273D): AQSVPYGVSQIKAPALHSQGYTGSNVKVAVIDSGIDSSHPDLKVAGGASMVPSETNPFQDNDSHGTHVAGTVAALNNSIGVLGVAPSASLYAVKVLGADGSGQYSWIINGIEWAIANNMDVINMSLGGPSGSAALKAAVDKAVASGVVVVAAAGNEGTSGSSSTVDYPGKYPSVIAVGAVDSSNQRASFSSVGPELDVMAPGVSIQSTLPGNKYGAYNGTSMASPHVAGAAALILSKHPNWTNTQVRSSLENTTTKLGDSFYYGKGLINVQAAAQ
Briefly: Kinetic analysis, hydrolysis of succinyl-tetrapeptide-pNA substrates. The data set is classed as biochemical. How it is done: (§1) The mature N62D/Y104D/G166D variant was purified and analyzed for its ability to hydrolyze several tetrapeptide-pNA substrates.
(§2) Kinetic analysis of WT, N62D/G166D, and N62D/Y104D/G166D subtilisin BPN'
(§3) Subtilisins were assayed by measuring the initial rates of hydrolysis of p-nitroanilide tetrapeptide substrates in 0.4 mL 20 mM Tris-Cl pH 8.2, 4% (v/v) dimethyl sulfoxide at (25±0.2)° C. as described previously (Estell, D. A., Graycar, T. P., Miller, J. V., Powers, D. B., Burnier, J. P., Ng, P. G. and Wells, J. A. (1986)Science 233:659-663). Enzyme concentrations (E)0 were determined spectrophotometrically using E280 nm 0.1%=1.17 (Matsubara, H.; Kasper, C B.; Brown, D. M.; and Smith, E. L. (1965)J. Biol. Chem.,240:1125-1130.), and were typically 5-50 nM in reactions. Initial rates were determined for nine to twelve different substrate concentrations over the range of 0.001-2.0 mM. Plots of initial rates (v) versus substrate concentration (S) were fitted to the Michaelis-Menton equation, [formula] to determine the kinetic constants kcat and Km (Fersht, A. in "Enzyme Structure and Mechanism", Second edition, Freeman and Co., N.Y.) using the program Kaleidagraph (Synergy Software, Reading, Pa.).

In data set [2] the target is T2, subtilisin BPN' variant N62D/Y104D/G166D (SEQ ID NO: 75) (Bacillus amyloliquefaciens, UniProt P00782, G273D/N169D/Y211D).
T2 construct: the mature enzyme +1 to +275; made in house; host or cells: Bacillus subtilis BG2036 (protease-deficient), secreted
T2 sequence (P00782 108-382 N169D/Y211D/G273D): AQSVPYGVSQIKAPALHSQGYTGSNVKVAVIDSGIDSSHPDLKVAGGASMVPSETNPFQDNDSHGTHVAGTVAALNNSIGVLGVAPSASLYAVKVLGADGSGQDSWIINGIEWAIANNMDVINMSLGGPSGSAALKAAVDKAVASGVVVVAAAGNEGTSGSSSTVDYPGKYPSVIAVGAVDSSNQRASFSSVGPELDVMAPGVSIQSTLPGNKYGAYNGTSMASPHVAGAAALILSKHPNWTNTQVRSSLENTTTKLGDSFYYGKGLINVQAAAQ
Described as above. The data set is classed as biochemical. To be noted: relative to succinyl-RAKR-pNA. How it is done:
as §1, §2, §3

Data set [3] has as its target T3, subtilisin BPN' variant N62D/G166E (Bacillus amyloliquefaciens, UniProt P00782, G273E/N169D).
T3 construct: correct folding and maturation of subtilisin requires autolytic cleavage of its propeptide; made in house; host or cells: Bacillus subtilis BG2036 (protease-deficient), secreted
In words: Kinetic analysis, hydrolysis of suc-AAXX-pna substrates. The format is biochemical. The conditions noted are these: Lys-Lys versus Lys-Phe substrate. How it is done:
Despite the less than additive effects seen for the two charged substitutions in the S2 site, we decided to combine the best S2 site variant (N62D) with either of the acidic substitutions in the S1 site. The two double mutants, N62D/G166E and N62D/G166D, were analyzed with substrates having the form, suc-AAXX-pna (SEQ ID NO. 71) where XX was either KK (SEQ ID NO. 66), KR (SEQ ID NO. 67), KF (SEQ ID NO. 62), PK (SEQ ID NO. 58), PF (SEQ ID NO. 56) or AF (SEQ ID NO. 63) (FIG. 4). The wild-type preference was AF>PF^~ KF>KK^~ PK>KR, whereas the double mutants had the preference KK>KR>KF>PK^~ AF>PF. […]
as §3, with “Plots of initial rates (v) versus substrate concentration (S) were fitted to the Michaelis-Menton equation, [formula] to determine the kinetic constants kcat and Km (Fersht, A. in "Enzyme Structure and Mechanism", Second edition, Freeman and Co., N.Y.) using the program Kaleidagraph (Synergy Software, Reading, Pa.).” left out

In the next data set the target is T4, succinyl-AAPF-pNA.
T4 sequence (peptide, N-terminal succinyl; C-terminal p-nitroanilide (pNA)): AAPF

A further data set deals with T5, succinyl-AAKR-pNA.
T5 sequence (peptide, N-terminal succinyl; C-terminal p-nitroanilide (pNA)): AAKR

Substrate in data set [4]: C[C@H](NC(=O)CCC(=O)O)C(=O)N[C@@H](C)C(=O)N[C@@H](CCCCN)C(=O)N[C@@H](CCCNC(=N)N)C(=O)Nc1ccc([N+](=O)[O-])cc1
In words: Kinetic analysis, hydrolysis of succinyl-tetrapeptide-pNA substrates. The data set is classed as biochemical, Bacillus amyloliquefaciens. To be noted: other: WT, 20 mM Tris-Cl pH 8.2, 4% DMSO, 25 C. How it is done: as §1, §2, §3

Substrate in data set [5]: C[C@H](NC(=O)CCC(=O)O)C(=O)N[C@@H](C)C(=O)N1CCC[C@H]1C(=O)N[C@@H](Cc1ccccc1)C(=O)Nc1ccc([N+](=O)[O-])cc1
The data set is described as above. The data set is classed as biochemical, Bacillus amyloliquefaciens. To be noted: other: WT, 20 mM Tris-Cl pH 8.2, 4% DMSO, 25 C. How it is done:
as §1, §2, §3

T3 sequence (P00782 108-382 N169D/G273E): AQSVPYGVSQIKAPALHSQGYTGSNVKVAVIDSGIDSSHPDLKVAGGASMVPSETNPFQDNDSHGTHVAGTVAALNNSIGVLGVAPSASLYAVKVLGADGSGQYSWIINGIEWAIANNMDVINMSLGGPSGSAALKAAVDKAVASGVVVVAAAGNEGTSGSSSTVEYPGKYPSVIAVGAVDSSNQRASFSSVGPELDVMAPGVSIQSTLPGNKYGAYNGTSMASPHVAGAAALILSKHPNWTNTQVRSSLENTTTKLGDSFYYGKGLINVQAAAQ

With `C[C@H](NC(=O)CCC(=O)O)C(=O)N[C@@H](C)C(=O)N[C@@H](CCCCN)C(=O)N[C@@H](CCCNC(=N)N)C(=O)Nc1ccc([N+](=O)[O-])cc1` [succinyl-AAKR-pNA] (HELM PEPTIDE1{[O=C(O)CCC(=O)[*:2]].A.A.K.R.[O=[N+]([O-])c1ccc(N[*:1])cc1]}$$$$V2.0), the “ratio of catalytic efficiency for succinyl-AAKR-pNA versus succinyl-AAPF-pNA” value in data set [1] is recorded as 1.9×10^2. Also, the “catalytic efficiency (kcat/Km), fold less efficiently hydrolyzed than succinyl-RAKR-pNA” value in data set [2] was found to be 60 fold.

`C[C@H](NC(=O)CCC(=O)O)C(=O)N[C@@H](C)C(=O)N[C@@H](CCCCN)C(=O)N[C@@H](CCCCN)C(=O)Nc1ccc([N+](=O)[O-])cc1` [Lys-Lys substrate] (HELM PEPTIDE1{[O=C(O)CCC(=O)[*:2]].A.A.K.K.[O=[N+]([O-])c1ccc(N[*:1])cc1]}$$$$V2.0): the results for the “ratio of catalytic efficiencies, times faster cleaved than the Lys-Phe substrate” value in data set [1] (Lys-Lys versus Lys-Phe substrate) and in data set [3] were 18 times and “about 8 times”, respectively.

B1: subtilisin BPN' from Bacillus amyloliquefaciens, wild type (WT), SEQ ID NO: 90 (Bacillus amyloliquefaciens) (protein)
chain: AQSVPYGVSQIKAPALHSQGYTGSNVKVAVIDSGIDSSHPDLKVAGGASMVPSETNPFQDNNSHGTHVAGTVAALNNSIGVLGVAPSASLYAVKVLGADGSGQYSWIINGIEWAIANNMDVINMSLGGPSGSAALKAAVDKAVASGVVVVAAAGNEGTSGSSSTVGYPGKYPSVIAVGAVDSSNQRASFSSVGPELDVMAPGVSIQSTLPGNKYGAYNGTSMASPHVAGAAALILSKHPNWTNTQVRSSLENTTTKLGDSFYYGKGLINVQAAAQ
notes: correct folding and maturation of subtilisin requires autolytic cleavage of its propeptide
On to B1, for which the kcat/Km, hydrolysis of succinyl-tetrapeptide-pNA in the data set with succinyl-AAPF-pNA was found to be 260000 M⁻¹ s⁻¹. Also, in the data set with succinyl-AAKR-pNA, the kcat/Km, hydrolysis of succinyl-tetrapeptide-pNA is 1700 M⁻¹ s⁻¹. Besides, in data set [4], the Km is 1700 µM and the kcat amounted to 2.8 s⁻¹. Further, in data set [5], the Km was 110 µM, the turnover number (kcat) was found to be 29 s⁻¹ and the specificity constant (kcat/Km) is 260000 M⁻¹ s⁻¹.

What is called Km is the concentration of substrate that gives half-maximal velocity. For orientation: kcat means the maximal rate divided by the concentration of active sites. One may read the kcat/Km as the second-order rate constant that governs catalysis at low substrate concentration.
